Test results published in publication PMC11481384 (2024).

B1: ED 12-mer peptide (peptide)
chain: ESGEEELASKLD
modifications: Limits inferred from the name: first residue E, last residue D, 12 residues, containing ESGE; by analogy IE 12-mer = 71-82 (PDB 8IN0) and the 20-mer is probably 71-90. Synthetic peptide, termini not stated
B2: 6-mer peptide (peptide)
chain: NVESGE
modifications: Sequence shown only in Fig. 4B; limits taken as the NxESGE motif (UniProt Keap1-interaction region 77-82). Synthetic peptide, termini not stated

target: Keap1 Kelch domain (amino acid residues 309 to 624) (human, UniProt Q14145 309-624); experiment: ITC
Sequence (Q14145 309-624): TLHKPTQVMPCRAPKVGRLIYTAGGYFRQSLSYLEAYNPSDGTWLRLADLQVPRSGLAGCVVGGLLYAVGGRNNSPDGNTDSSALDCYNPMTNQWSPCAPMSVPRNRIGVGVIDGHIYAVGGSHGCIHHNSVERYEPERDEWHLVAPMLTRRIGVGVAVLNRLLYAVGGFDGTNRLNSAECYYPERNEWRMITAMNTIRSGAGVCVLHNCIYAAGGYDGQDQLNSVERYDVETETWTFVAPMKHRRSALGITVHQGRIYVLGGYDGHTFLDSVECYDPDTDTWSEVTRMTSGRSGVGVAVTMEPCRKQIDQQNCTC

Binder | Kd [µM]
INVRKRNVESGE [PGAM5 IE 12‐mer peptide] | 63.6
B1 | 14
B2 | 133
